Reference: patent US20240010735A1 (EISAI R AND D MANAGEMENT, published 2024)

Key:
[1] = target: T1, mouse EphA10 extracellular region-Fc-His protein (mouse; human, UniProt Q8BYG9 23-565); assay: ELISA: Fc-His proteins (1 nM) captured on anti-6-His antibody, antibody A 10 µg/mL with human IgG 100 µg/mL, HRP anti-mouse IgG, OD450 as % of mouse EphA4-Fc-His
T1 construct: extracellular domain; not shown: Fc region of human IgG1; histidine tag
T1 sequence (looked up): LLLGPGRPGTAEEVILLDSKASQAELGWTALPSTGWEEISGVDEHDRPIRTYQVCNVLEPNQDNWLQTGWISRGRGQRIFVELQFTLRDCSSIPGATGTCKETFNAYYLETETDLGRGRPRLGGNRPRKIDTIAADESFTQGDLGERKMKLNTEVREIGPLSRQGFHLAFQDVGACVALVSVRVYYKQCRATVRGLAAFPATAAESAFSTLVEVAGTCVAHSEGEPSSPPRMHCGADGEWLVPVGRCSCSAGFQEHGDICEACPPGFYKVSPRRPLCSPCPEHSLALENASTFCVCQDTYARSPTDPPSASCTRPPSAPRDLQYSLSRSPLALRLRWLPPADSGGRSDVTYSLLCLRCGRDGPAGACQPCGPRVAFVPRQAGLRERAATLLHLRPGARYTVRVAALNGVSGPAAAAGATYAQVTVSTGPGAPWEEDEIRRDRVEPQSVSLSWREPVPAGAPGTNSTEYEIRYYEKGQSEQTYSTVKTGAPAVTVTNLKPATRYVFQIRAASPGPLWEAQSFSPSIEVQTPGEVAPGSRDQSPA
Description: (§1) Rabbit anti-6-His antibodies (Bethyl Laboratories) were coated onto the wells of a 96-well plate (Nunc). After incubating at 4° C. overnight, the wells were blocked at room temperature for 1 hour by 1% Block Ace (DS Pharma Biomedical). After washing 3 times with 0.05% Tween 20/PBS (Thermo […]), each Eph receptor of mouse extracellular region-Fc-His protein (final concentration 1 nM) was seeded into each well, and incubated at room temperature for 1 hour. After washing 3 times, human IgG solution (100 μg/mL, Sigma) and antibody A (10 μg/mL) were supplemented to the wells, and incubated at room temperature for 1 hour. Horseradish peroxidase-labeled donkey anti-mouse IgG antibody (Jackson ImmunoResearch Laboratories) was added, and incubated at room temperature for 1 hour. After washing 3 times, TMBZ (3,3′,5,5′-tetramethylbenzidine, Sigma) solution was added to the wells, and upon confirmation of modest coloring, an equal amount of quenching solution (1 N H₂SO₄, Wako Pure Chemicals) was added to the wells, and absorbance at 450 nm was read by a microplate reader (PerkinElmer).

[2] = target: T2, mouse EphA3 extracellular region-Fc-His protein (mouse; human, UniProt P29319 21-540); assay: as above
T2 construct: extracellular domain; not shown: Fc region of human IgG1; histidine tag
T2 sequence (looked up): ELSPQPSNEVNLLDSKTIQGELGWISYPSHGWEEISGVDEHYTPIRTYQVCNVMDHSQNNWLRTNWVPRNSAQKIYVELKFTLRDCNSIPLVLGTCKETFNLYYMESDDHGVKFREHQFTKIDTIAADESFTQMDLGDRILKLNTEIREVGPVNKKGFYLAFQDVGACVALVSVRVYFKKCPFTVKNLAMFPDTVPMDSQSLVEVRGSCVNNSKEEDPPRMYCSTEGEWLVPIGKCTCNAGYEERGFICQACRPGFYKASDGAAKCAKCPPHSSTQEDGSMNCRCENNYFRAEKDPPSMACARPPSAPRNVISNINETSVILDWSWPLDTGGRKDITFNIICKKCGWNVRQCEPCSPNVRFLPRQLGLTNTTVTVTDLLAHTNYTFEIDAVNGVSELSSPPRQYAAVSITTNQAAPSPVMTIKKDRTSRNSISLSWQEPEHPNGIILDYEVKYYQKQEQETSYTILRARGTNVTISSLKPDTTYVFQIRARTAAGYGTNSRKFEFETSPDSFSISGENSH
Description: as §1

[3] = target: T3, human EphA8 extracellular region-SEAP-His protein (human, UniProt P29322 28-542); assay: ELISA: SEAP-His proteins (1 nM) captured on anti-6-His antibody, antibody A 10 µg/mL with human IgG 100 µg/mL, HRP anti-mouse IgG, OD450 as % of human EphA4-SEAP-His
T3 construct: extracellular domain; also called Eph receptor extracellular region-SEAP-His protein; not shown: secretory alkaline phosphatase (SEAP); histidine tag
T3 sequence (looked up): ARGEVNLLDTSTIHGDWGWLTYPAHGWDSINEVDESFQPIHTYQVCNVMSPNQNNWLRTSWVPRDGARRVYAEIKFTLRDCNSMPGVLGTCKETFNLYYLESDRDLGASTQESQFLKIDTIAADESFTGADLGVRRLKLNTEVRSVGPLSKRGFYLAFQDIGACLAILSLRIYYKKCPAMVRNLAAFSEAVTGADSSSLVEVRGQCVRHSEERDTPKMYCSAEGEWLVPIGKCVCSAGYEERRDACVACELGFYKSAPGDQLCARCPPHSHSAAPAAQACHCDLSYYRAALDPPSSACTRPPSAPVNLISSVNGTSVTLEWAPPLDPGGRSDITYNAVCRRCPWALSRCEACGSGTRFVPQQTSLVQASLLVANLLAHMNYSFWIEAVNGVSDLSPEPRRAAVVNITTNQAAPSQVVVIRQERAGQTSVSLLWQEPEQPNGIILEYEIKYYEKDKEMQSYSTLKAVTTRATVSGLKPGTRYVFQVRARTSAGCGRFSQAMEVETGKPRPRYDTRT

Measured: binding result

B1: mouse anti-EphA4 monoclonal antibody (antibody A) (antibody, mouse IgG1, kappa, V domains shown)
VH: QVQLKQSGPSLVQPSQSLSITCTVSGFSLTRYGVHWVRQSPGKGLEWLGVIWRGGSTDYNAAFMSRLSITKDNSKSQVFFKMNSLQADDTAIYYCAKESLFGVYYDYGYYSMDYWGQGTSVTVSS
VL: DIQMTQSPSSLSASLGERVSLTCRASQEISGYLSWLQQKPDGTIKRLIYAASTLDSGVPKRFSGSRSGSDYSLTISSLESEDFADYYCLQYASYPLTFGAGTKLELKR
notes: purified from hybridoma supernatant
no binding (tested: 10 µg/mL): [1] | [2] | [3]
